{"source": "patent US20200399343A1", "molecules": {"B1": {"name": "E19 (protein)", "chain": "TTQKVDFKEPACNVTFAAEANECTTLIKCTTEHEKLLIRHKNKIGKYAVYAIWQPGDTTEYNVTVFQGKSHKTFMYTFPFYEMCDITMYMSKQYKLWPPQNCVENTGTFCCTAMLITVLALVCTLLYIKYKSRRSFIEEKKMP"}, "B2": {"name": "ICP47 (protein)", "chain": "MSWALEMADTFLDTMRVGPRTYADVRDEINKRGREDREAARTAVHDPERPLLRSPGLLPEIAPNASLGVAHRRTGGTVTDSPRNPVTR"}, "B3": {"name": "US2 (protein)", "chain": "MNNLWKAWVGLWTSMGPLIRLPDGITKAGEDALRPWKSTAKHPWFQIEDNRCYIDNGKLFARGSIVGNMSRFVFDPKADYGGVGENLYVHADDVEFVPGESLKWNVRNLDVMPIFETLALRLVLQGDVIWLRCVPELRVDYTSSAYMWNMQYGMVRKSYTHVAWTIVFYSINITLLVLFIVYVTVDCNLSMMWMRFFVC"}, "B4": {"name": "US6 (protein)", "chain": "ERSSRDPKTLLSLSPRQQACVPRTKSHRPVCYNDTGDCTDADDSWKQLGEDFAHQCLQAAKKRPKTHKSRPNDRNLEGRLTCQRVRRLLPCDLDIHPSHRLLTLMNNCVCDGAVWNAFRLIERHGFFAVTLYLCCGITLLVVILALLCSITYESTGRGIRR"}, "B5": {"name": "US11 (protein)", "chain": "MPELSLTLFDEPPPLVETEPLPPLSDVSEYRVEYSEARCVLRSGGRLEALWTLRGNLSVPTPTPRVYYQTLEGYADRVPTPVEDVSESLVAKRYWLRDYRVPQRTKLVLFYFSPCHQCQTYYVECEPRCLVPWVPLWSSLEDIERLLFEDRRLMAYYALTIKSAQYTLMMVAVIQVFWGLYVKGWLHRHFPWMFSDQW"}}, "key": {"[1]": {"target": "major histocompatibility complex (MHC) Class I"}, "[2]": {"target": "major histocompatibility complex (MHC) Class I", "remark": "listed apart in the source"}}, "data": [{"molecule": "K3", "values": [{"measurement": "MHC Class I expression (MFI HLA A/B/C) on transduced primary T cells (MFI HLA A/B/C)", "setting": "[1]", "result": 10900}, {"measurement": "MHC Class I expression (MFI HLA A/B/C) on transduced Jurkat cells (MFI HLA A/B/C)", "setting": "[2]", "result": 2170}]}, {"molecule": "K5", "values": [{"measurement": "MHC Class I expression (MFI HLA A/B/C) on transduced primary T cells (MFI HLA A/B/C)", "setting": "[1]", "result": 4480}, {"measurement": "MHC Class I expression (MFI HLA A/B/C) on transduced Jurkat cells (MFI HLA A/B/C)", "setting": "[2]", "result": 661}]}, {"molecule": "US3", "values": [{"measurement": "MHC Class I expression (MFI HLA A/B/C) on transduced primary T cells (MFI HLA A/B/C)", "setting": "[1]", "result": 13000}, {"measurement": "MHC Class I expression (MFI HLA A/B/C) on transduced Jurkat cells (MFI HLA A/B/C)", "setting": "[2]", "result": 5320}]}, {"molecule": "B1", "values": [{"measurement": "MHC Class I expression (MFI HLA A/B/C) on transduced primary T cells (MFI HLA A/B/C)", "setting": "[1]", "result": 14800}, {"measurement": "MHC Class I expression (MFI HLA A/B/C) on transduced Jurkat cells (MFI HLA A/B/C)", "setting": "[2]", "result": 3430}]}, {"molecule": "B2", "values": [{"measurement": "MHC Class I expression (MFI HLA A/B/C) on transduced primary T cells (MFI HLA A/B/C)", "setting": "[1]", "result": 5940}, {"measurement": "MHC Class I expression (MFI HLA A/B/C) on transduced Jurkat cells (MFI HLA A/B/C)", "setting": "[2]", "result": 2060}]}, {"molecule": "B3", "values": [{"measurement": "MHC Class I expression (MFI HLA A/B/C) on transduced primary T cells (MFI HLA A/B/C)", "setting": "[1]", "result": 14500}, {"measurement": "MHC Class I expression (MFI HLA A/B/C) on transduced Jurkat cells (MFI HLA A/B/C)", "setting": "[2]", "result": 6080}]}, {"molecule": "B4", "values": [{"measurement": "MHC Class I expression (MFI HLA A/B/C) on transduced primary T cells (MFI HLA A/B/C)", "setting": "[1]", "result": 9500}, {"measurement": "MHC Class I expression (MFI HLA A/B/C) on transduced Jurkat cells (MFI HLA A/B/C)", "setting": "[2]", "result": 1720}]}, {"molecule": "B5", "values": [{"measurement": "MHC Class I expression (MFI HLA A/B/C) on transduced primary T cells (MFI HLA A/B/C)", "setting": "[1]", "result": 14600}, {"measurement": "MHC Class I expression (MFI HLA A/B/C) on transduced Jurkat cells (MFI HLA A/B/C)", "setting": "[2]", "result": 8080}]}]}
